Laboratory results reported in patent US6362326B1, “11 cby genomic sequence” (SmithKline Beecham Corporation, priority 1998, dated 2002).

Target: 11cby polypeptide of SEQ ID NO: 2 (Homo sapiens, UniProt Q99705)
Test: binding of 11cby polypeptide to melanin-concentrating hormone
Details: qualitative statement, method or value not given

11cby polypeptide of SEQ ID NO: 2, sequence (Q99705 whole entry): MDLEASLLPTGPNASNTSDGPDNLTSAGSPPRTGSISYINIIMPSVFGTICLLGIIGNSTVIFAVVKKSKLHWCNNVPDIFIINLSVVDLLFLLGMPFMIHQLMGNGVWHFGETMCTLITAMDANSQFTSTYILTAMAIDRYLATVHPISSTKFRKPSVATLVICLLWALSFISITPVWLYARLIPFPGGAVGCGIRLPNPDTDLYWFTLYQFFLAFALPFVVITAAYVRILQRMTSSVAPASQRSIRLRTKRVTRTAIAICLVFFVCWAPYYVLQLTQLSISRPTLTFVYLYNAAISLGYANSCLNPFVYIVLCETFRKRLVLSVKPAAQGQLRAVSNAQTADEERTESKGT

For “H-Asp-Phe-Asp-Met-Leu-Arg-Cys-Met-Leu-Gly-Arg-Val-Tyr-Arg-Pro-Cys-Trp-Gln-Val-OH [MCH]”, the “binding to 11cby polypeptide (7-transmembrane receptor)” value was “bind”.
